From patent US20160002325A1 (VACCINEX, published 2016) come the findings set out here.

The target in test [1] is T1, mouse CXCL13 (mouse, UniProt O55038 22-109).
T1 construct: Recombinant protein bought from Peprotech (#250-24); In some assays native mouse CXCL13 from organ extracts of TNF-alpha transgenic mice was used; this is said in the assay field; also called recombinant mouse CXCL13; rmuCXCL13
T1 sequence: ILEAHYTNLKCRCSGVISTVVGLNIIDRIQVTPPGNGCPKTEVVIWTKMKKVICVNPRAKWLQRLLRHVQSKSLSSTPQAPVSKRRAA
The experiment in a line: SPR (BIACORE), recombinant mouse CXCL13, methods similar to Example 1; printed as Affinity, nM. Here is the method:
(§1) Chemokines were immobilized on a C1 chip in Acetate buffer (pH=5) with human CXCL13 at 1 μg/ml, mouse CXCL13 at 0.3 μg/ml, and negative control SDF-1α at 0.5 μg/ml. 3D2 and 3C9 were diluted in HBS-EP buffer by two-fold from 100 nM to 0.78 nM and from 38 nM to […].

The target in test [2] is T1, mouse CXCL13. The experiment in a line: Specificity ELISA on recombinant mouse CXCL13 coated at 100 nM, OD 450/570, four-parameter sigmoidal fit. Here is the method: For specificity ELISA, recombinant human, cynomolgus monkey, and mouse CXCL13 were each coated at 100 nM. […] The data points for each chemokine represents the mean of triplicate measurements. EC50 values were calculated from four-parameter sigmoidal curve fit (R² for the curves that produced EC50 values were 0.99).
On the technique in general: ELISA stands for enzyme-linked immunosorbent assay.

For test [3], the target named is T2, human CXCL13 (human, UniProt O43927 23-109).
T2 construct: Recombinant protein bought from Peprotech (#300-47); In some assays native human CXCL13 from supernatant of IFN-gamma-stimulated THP-1 cells was used; this is said in the assay field; also called recombinant human CXCL13; rhuCXCL13
T2 sequence: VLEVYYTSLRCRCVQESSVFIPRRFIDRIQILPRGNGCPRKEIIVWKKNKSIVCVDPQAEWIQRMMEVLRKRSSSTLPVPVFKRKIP
The test is described as follows: SPR (BIACORE), recombinant human CXCL13, methods similar to Example 1; printed as Affinity, nM. Here is the method: as §1
A general note: SPR reads the build-up and loss of mass on a sensor chip optically.

Test [4] deals with T1, mouse CXCL13. The experiment in a line: SPR (Biacore), recombinant mouse CXCL13; printed as Affinity (Biacore), nM.
Test [5] has as its target T3, human CXCL13 15-mer peptide YTSLRCRCVQESSVF (human).
T3 peptide: YTSLRCRCVQESSVF
The experiment in a line: ProArray Ultra peptide microarray of 15-mer human CXCL13 peptides, fluorescent secondary antibody. Here is the method:
In this project, the determination of peptide-antibody binding was performed by incubation of serum samples with a ProArray Ultra™ peptide microarray. This peptide array was generated as 15-mer peptides overlapping by 10 amino acids from the human CXCL13 primary sequence. The CXCL13 array contained sixteen unique peptides. […] After several washing steps the ProArray Ultra™ arrays were dried and scanned using a high-resolution fluorescence microarray scanning system.

The target of test [6] is T2, human CXCL13. The test is described as follows: Specificity ELISA on recombinant human CXCL13 coated at 100 nM, OD 450/570, four-parameter sigmoidal fit.
Test [7] concerns the target T1, mouse CXCL13. The experiment in a line: Capture Epitope Competition ELISA: native mouse CXCL13 captured with MAb 470; unlabeled competitor inhibits binding of 3.3 nM biotin-3D2; four-parameter fit. Here is the method:
For mouse ELISA, mouse CXCL13 (1:40 dilution of TNF-Tg organ extract) was captured with 33 nM MAb 470 and detected with 3.3 nM biotin-3D2. Each data point represents an average of duplicate measurements from one of at least three independent experiments. […] Curves shown in FIGS. 17A-B were fitted using four-parameter sigmoidal curve fit (R²=0.99).

Another test addresses T4, cynomolgus monkey CXCL13 (cynomolgus monkey, UniProt O43927 23-104 (human entry), limits assumed).
T4 construct: Recombinant; also called recombinant cynomolgus monkey CXCL13
T4 chain: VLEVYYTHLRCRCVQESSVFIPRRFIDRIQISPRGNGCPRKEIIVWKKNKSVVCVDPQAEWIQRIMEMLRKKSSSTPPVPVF
The experiment in a line: Specificity ELISA on recombinant cynomolgus monkey CXCL13 coated at 100 nM, OD 450/570, four-parameter sigmoidal fit.

The target of test [8] is T2, human CXCL13. The test is described as follows: SPR (Biacore), recombinant human CXCL13; printed as Affinity (Biacore), nM.

B1: MAb 5261 (antibody, V domains shown)
VH: QVQLQESGPGLVKPSETLSLTCTVSGFSLSTFGMGVGWIRQPPGKGLEWIAHIWWDDDRRYNPALKSRVTISKDTSKNQFSLKLSSVTAADTAVYYCARIAGYYGSRDWFAYWGQGTTVTVSS
VL: DIQMTQSPSSLSASVGDRVTITCRASESVDNMGISFMHWYQQKPGKAPKLLIFRASDLESGVPSRFSGSGSGTDFTLTISSLQPEDFATYYCQQSNKDPWTFGQGTKLEIK
notes: Humanized
By Kd is commonly meant the concentration at which binding is half-saturated. For orientation: EC50 means the concentration at which the effect is half-maximal. As to B1, the Kd with mouse CXCL13 [1] was 8.1 nM; with human CXCL13 [3] it was 5.1 nM; in the test with mouse CXCL13 [4] it was 8.1 nM; in the test with human CXCL13 [8], 5.1 nM. Besides, the concentration giving a half-maximal response (EC50) turned out to be 0.09 nM with mouse CXCL13 [2], 0.03 nM with human CXCL13 [6], 6 nM with mouse CXCL13 [7] and 0.04 nM in the test with cynomolgus monkey CXCL13. Moreover, the binding result in test [5] is listed as “binds”.
